# Test results taken from the RNAGym collection of RNA variant scans (doi:10.1093/nar/gkz1192).
# B1: CPEB3 Ribozyme (parent)
# chain: UAACAGGGGGCCACAGCAGAAGCGUUCACGUCGCAGCCCCUGUCAGAUUCUGGUGAAUCUGCGAAUUCUGCUGUAUAUCUC
# Variants of: B1
# Assay: self-cleavage, relative activity (ratio to wild type); higher = more cleavage; in vitro, sequencing
# How it was run: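 After error-prone PCR and barcoding, CPEB3 ribozyme mutant libraries were transcribed with T7 RNA polymerase at 37°C for 5 hours, then given 15 min with DNase I before an EDTA stop, and they cleaved during both steps. Reverse transcription with template switching preceded Illumina sequencing. Relative activity divides a variant's cleaved/total read fraction by the unmutated ribozyme's. At least 5 reads were required per variant, and three batches were averaged.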
row,Variant,self-cleavage
1,U41A U48C,0.23
2,U41A U48A,0.22
3,U41A U48G,0.37
4,C39U C79U,1.02
5,C40A U69G,0.11
6,C40A U69C,0.25
7,U41A C71G,0.1
8,U41A C71U,0.24
9,U41C A75C,1.15
10,U41C A75G,1.09
11,U41C A75U,1.18
12,C40U U51C,0.65
13,C40U U51G,0.49
14,C40U U51A,0.84
15,C39U U78A,0.89
16,U41A C81A,0.22
17,U41A C81G,0.25
18,U41A C81U,0.25
19,C40A A65G,0.31
20,U41A U72G,0.21
21,U41A U72C,0.28
22,U41A U72A,0.23
23,C40G A65G,0.35
24,U41A A65U,0.17

row,Variant,self-cleavage
1,U41A A65G,0.25
2,C40U A64G,0.54
3,C40U A64U,0.27
4,C40A A75G,0.47
5,C40A A75U,0.43
6,U41C G52U,1.03
7,U41C G52C,1.12
8,U41C G52A,1.18
9,C40A U74A,0.3
10,U41C A77U,1.17
11,U41C A77G,1.17
12,U41C A77C,1.09
13,U41C C71A,0.33
14,U41C C71G,0.4
15,U41C C71U,0.76
16,C39U U51G,0.89
17,C39U U51A,1.06
18,C39U U72G,1.06
19,C39U U72C,0.71
20,C39U U72A,0.98
21,C40G A77G,0.08
22,C40A U58C,0.1
23,C40U U54A,1.08
24,C40U U54C,0.7

row,Variant,self-cleavage
1,C40U U54G,0.6
2,C40A A47C,0.17
3,C40A A47G,0.21
4,C40U A75U,0.74
5,C40U A75G,0.5
6,U41A G55A,0.19
7,U41A G55C,0.34
8,U41A G55U,0.2
9,C39U U76C,1.08
10,C39U U67C,0.21
11,C40U C44A,0.52
12,C40U A77C,0.74
13,C40U A77G,0.58
14,C40U A77U,0.81
15,C40U C68G,0.28
16,U41A C59U,0.06
17,U41A C59A,0.13
18,U41C,1.09
19,U41A,0.3
20,U41C C59U,0.89
21,U41C C59A,0.27
22,U41A A47G,0.29
23,U41A A47U,0.3
24,U41A A47C,0.18

row,Variant,self-cleavage
1,U41A G46U,0.29
2,U41A G46A,0.3
3,C40A A56U,0.2
4,C40A A56G,0.23
5,C40U G55U,0.49
6,C40U G55A,0.67
7,C39U A65G,0.32
8,U41A C62A,0.34
9,U41A C62U,0.16
10,U41A U54G,0.22
11,U41A U54C,0.29
12,U41A U54A,0.27
13,U41C A64U,0.4
14,U41C A64G,0.77
15,U41C A64C,0.46
16,C39U C71U,0.57
17,U41A U80A,0.28
18,U41A U80G,0.41
19,U41A U80C,0.32
20,C40U C71A,0.17
21,U41C G61C,0.21
22,U41C G61A,0.34
23,U41C G61U,0.62
24,C39U U60A,0.43

row,Variant,self-cleavage
1,C39U U60C,0.39
2,C40A U78C,0.18
3,C40A U78A,0.22
4,C40A U51A,0.33
5,C40A U51G,0.25
6,U41C G63A,0.89
7,U41C G63U,1.13
8,U41C G63C,1.06
9,U41A A75C,0.31
10,U41A A75G,0.27
11,U41A A75U,0.4
12,C40A G42U,0.31
13,C40A U76C,0.38
14,C40A U76A,0.28
15,U41A U43G,0.4
16,U41A U43C,0.27
17,U41A U43A,0.24
18,U41A C44U,0.23
19,U41A C44A,0.15
20,U41A G53A,0.38
21,U41A G53C,0.23
22,U41C A47U,0.61
23,U41C A47C,0.46
24,U41C A47G,1

row,Variant,self-cleavage
1,C40A A57G,0.22
2,C40A A45G,0.26
3,C40A A45U,0.31
4,C40A A45C,0.23
5,C40U A45G,0.55
6,C40U A45C,0.17
7,C40U A45U,0.15
8,C40A U60G,0.2
9,C40A U60C,0.2
10,C40U U78A,0.75
11,C40U U78C,0.56
12,U41A U67A,0.36
13,U41A U67C,0.21
14,U41A U67G,0.18
15,U41C G55U,1.17
16,U41C G55A,0.93
17,C40U C79G,1.24
18,C39U U41A,0.25
19,U41C G73A,1.23
20,C40G U60C,0.16
21,C40G U60A,0.11
22,C40U U66C,0.33
23,C40U U66A,0.23
24,U41A U49C,0.23

row,Variant,self-cleavage
1,U41A U49A,0.23
2,C40A U80A,0.26
3,C40A U80C,0.24
4,U41C C44A,0.39
5,U41C C44U,0.53
6,C40U G46A,0.18
7,C40A C50A,0.27
8,C40A C50U,0.22
9,C40G U80C,0.19
10,C40A U67C,0.28
11,U41A G73C,0.17
12,U41A G73A,0.45
13,U41A G73U,0.42
14,U41A A77U,0.31
15,U41A A77C,0.15
16,U41A A77G,0.31
17,C40U U76C,0.92
18,U41A U74A,0.29
19,U41A U74C,0.4
20,C40A U72C,0.37
21,C40A U72G,0.41
22,U41C C50G,0.96
23,U41C C50U,1.08
24,U41C C50A,0.94

row,Variant,self-cleavage
1,C40U G61A,0.42
2,C40G U54G,0.29
3,C40G U54C,0.2
4,C39U G46U,0.11
5,C40A G63A,0.12
6,C40U C59U,0.28
7,U41C C62U,0.17
8,U41C C62G,0.15
9,U41C C62A,0.19
10,U41A G61U,0.24
11,C40U U41A,0.25
12,C40U U41G,0.16
13,C40U U41C,0.92
14,U41C A65U,0.48
15,U41C A65C,0.4
16,U41C A65G,0.53
17,C40U U69A,0.41
18,C40U U69G,0.57
19,C40U U69C,0.36
20,C39U U48C,0.42
21,U41A G70U,0.12
22,U41A G63U,0.3
23,U41A G63C,0.26
24,U41A G63A,0.35

row,Variant,self-cleavage
1,C40A U48A,0.15
2,C40A U48C,0.18
3,C40G U48C,0.13
4,C40G U48A,0.67
5,U41C G53C,1.13
6,U41C G53A,1.13
7,C39U U74C,1.1
8,C39U U74A,1.08
9,U41A A56U,0.29
10,U41A A56G,0.24
11,C39U U58C,0.3
12,C40U A56U,0.32
13,C40U A56C,0.32
14,C40U A56G,0.48
15,C39U U69C,0.32
16,C39U U69A,0.44
17,U41A U66C,0.23
18,U41A U66A,0.27
19,U41A U66G,0.18
20,C40U U80A,0.67
21,C40U U80C,0.76
22,C40A U41C,0.36
23,C40A U41A,0.1
24,C39U A57G,0.27

row,Variant,self-cleavage
1,C40G U72G,0.16
2,C40G U72C,0.48
3,C40U G42A,0.27
4,U41A A64C,0.15
5,U41A A64G,0.28
6,U41A A64U,0.29
7,C39U A77U,0.81
8,C39U A77G,0.83
9,U41C C68G,0.39
10,U41C C68U,1.09
11,U41C C79A,1.21
12,U41C C79U,1.26
13,U41A U76A,0.16
14,U41A U76C,0.27
15,U41A U76G,0.22
16,C40U G70U,0.16
17,C40G U78C,0.38
18,C39U U49C,0.31
19,U41C G70U,0.5
20,U41C G70A,0.62
21,U41A A45U,0.2
22,U41A A45G,0.24
23,U41A A45C,0.18
24,U41C C81U,1.19

row,Variant,self-cleavage
1,U41C C81A,1.19
2,C40U,0.76
3,C40A,0.28
4,C40G,0.29
5,C40A A77G,0.28
6,C40U A57U,0.61
7,C40U A57C,0.46
8,C40U A57G,0.36
9,C40A U54C,0.28
10,C40A U54A,0.29
11,C40U U60G,0
12,C40U U60C,0.3
13,C40U U60A,0.34
14,U41C G42A,0.23
15,U41C G42C,0.23
16,C40A U66C,0.18
17,C40A U49A,0.18
18,C40A C81G,0.07
19,C40U A47G,0.5
20,C40U A47U,0.32
21,C40A A64G,0.12
22,U41C A57G,1
23,U41C A57C,0.58
24,U41C A57U,0.78

row,Variant,self-cleavage
1,C40G U41A,0.26
2,C40G U41C,0.32
3,C40G U41G,0.6
4,C40U G73C,1.22
5,U41A G52A,0.19
6,U41A G52U,0.21
7,U41A G52C,0.67
8,C40U A65U,0.37
9,C40U A65G,0.27
10,C39U U66C,0.37
11,C40U U48C,0.25
12,U41A U69G,0.33
13,U41A U69C,0.24
14,U41A U69A,0.14
15,U41A U60C,0.26
16,U41A U60G,0.23
17,U41A U60A,0.25
18,C40U G53A,0.84
19,C39U C62A,0.35
20,C39U U80C,0.8
21,C40G A56U,0.42
22,U41C A56C,0.64
23,U41C A56G,0.94
24,U41C A56U,0.75

row,Variant,self-cleavage
1,U41A U51C,0.31
2,U41A U51G,0.42
3,U41A U51A,0.36
4,C40U U72C,0.9
5,C40U U72A,0.39
6,C40U U72G,0.32
7,C39U A75G,0.97
8,U41A C79A,0.32
9,U41A C79G,0.37
10,U41A C79U,0.41
11,U41A G42U,0.27
12,U41A G42C,0.21
13,U41A G42A,0.37
14,U41A U58A,0.22
15,U41A U58C,0.23
16,U41A U58G,0.23
17,C39U U43C,0.35
18,C39U U43A,1.12
19,C40U U43A,0.92
20,C40U U43C,0.39
21,U41A C68A,0.17
22,U41C A45C,0.53
23,U41C A45G,0.92
24,U41C A45U,0.68

row,Variant,self-cleavage
1,C40U U74G,1.04
2,C40U U74C,1.08
3,U41A U78A,0.25
4,U41A U78C,0.26
5,U41A U78G,0.13
6,C40U U67C,0.23
7,C40A U43C,0.14
8,C40A U43A,0.45
9,C40U C50A,0.46
10,C40G U66C,0.22
11,C40U U58A,0.3
12,C40U U58C,0.24
13,C40U U49C,0.36
14,C40U U49A,0.2
15,C39U A64U,0.36
16,C40G U43C,0.16
17,U41C G46C,0.42
18,U41C G46U,0.34
19,C39U U54A,0.95
20,U41A A57G,0.25
21,U41A A57C,0.4
22,U41A A57U,0.13
